We go through one protein from PMC9351455.

A short description of the series: 35S pulse-chase, HA immunoprecipitation from lysate and media. The following applies: glycan lost; control: wild type Cab45-HA.

B1: Cab45: Cab45-N40G (protein)
parent chain: MVWPWVAMASRWGPLIGLAPCCLWLLGAVLLMDASARPANHSSTRERVANREENEILPPDHLNGVKLEMDGHLNRGFHQEVFLGKDLGGFDEDAEPRRSRRKLMVIFSKVDVNTDRKISAKEMQRWIMEKTAEHFQEAMEESKTHFRAVDPDGDGHVSWDEYKVKFLASKGHSEKEVADAIRLNEELKVDEETQEVLENLKDRWYQADSPPADLLLTEEEFLSFLHPEHSRGMLRFMVKEIVRDLDQDGDKQLSVPEFISLPVGTVENQQGQDIDDNWVKDRKKEFEELIDSNHDGIVTAEELESYMDPMNEYNALNEAKQMIAVADENQNHHLEPEEVLKYSEFFTGSKLVDYARSVHEEF
B1: the expression_or_secretion entry is on record as “no change”.
